Source: US20180104303A1 (UNIVERSITE DE LA ROCHELLE, published 2018)

Assays:
Experiment in all cases: cell-based or functional assay
DPP-IV from pig kidney = DPP-IV from pig kidney (pig, UniProt P22411 38-766, limits assumed)
[1] = target: T1, recombinant alpha-glucosidase from Saccharomyces cerevisiae, which is a maltase (Saccharomyces cerevisiae)
[2] = target: T1, recombinant alpha-glucosidase from …; remark: listed apart in the source
[3] = target: T1, recombinant alpha-glucosidase from …; remark: listed apart in the source

DPP-IV from pig kidney, sequence (P22411 38-766 limits assumed): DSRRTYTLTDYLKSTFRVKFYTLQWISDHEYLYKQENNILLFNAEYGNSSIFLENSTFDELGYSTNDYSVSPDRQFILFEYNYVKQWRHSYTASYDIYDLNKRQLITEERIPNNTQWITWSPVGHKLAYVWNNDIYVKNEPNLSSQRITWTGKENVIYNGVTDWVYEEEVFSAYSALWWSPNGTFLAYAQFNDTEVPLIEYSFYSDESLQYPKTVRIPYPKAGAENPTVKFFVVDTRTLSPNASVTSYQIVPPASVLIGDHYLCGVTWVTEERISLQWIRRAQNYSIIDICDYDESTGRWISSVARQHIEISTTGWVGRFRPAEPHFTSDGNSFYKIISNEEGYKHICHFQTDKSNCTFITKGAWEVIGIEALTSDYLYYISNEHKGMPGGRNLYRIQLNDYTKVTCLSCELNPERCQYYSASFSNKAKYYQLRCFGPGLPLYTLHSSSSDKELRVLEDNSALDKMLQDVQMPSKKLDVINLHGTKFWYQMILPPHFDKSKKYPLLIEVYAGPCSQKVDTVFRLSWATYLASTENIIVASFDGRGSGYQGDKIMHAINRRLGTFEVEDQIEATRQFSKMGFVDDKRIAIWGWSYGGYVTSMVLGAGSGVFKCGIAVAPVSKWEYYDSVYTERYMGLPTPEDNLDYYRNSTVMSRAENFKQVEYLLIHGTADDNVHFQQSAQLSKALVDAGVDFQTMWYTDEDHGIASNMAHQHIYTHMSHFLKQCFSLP

Row | Binder | (IC50) in mmol/l, inhibition of DPP-IV (DPP-IV from pig kidney) [mmol/L] | Inhibitory activity on α-glucosidase (IC50) in mg/ml [1] [mg/mL] | Inhibitory activity on α-glucosidase (IC50) in mmol/l [1] [mmol/L] | IC50 (inhibition of the activity of α-glucosidase in vitro) [2] [µM] | IC50 ratio against acarbose [2] [fold] | Inhibitory activity on α-glucosidase (IC50) [3] [mM] | IC50 ratio against the AP and VAP peptides [2] [fold]
1 | AVPYQR [AVPYQR (SEQ ID NO: 5)] | 5.7 | 2.34 | 3.19 | – | – | – | –
2 | AP [AP peptide] | 4.78 | 0.0025 | 0.0136 | 13.6 | ~874 | 0.0136 | –
3 | KY [KY peptide] | – | 3.39 | 11 | – | – | 11 | –
4 | KW [KW peptide] | – | 4.24 | 12.8 | – | – | 12.8 | –
5 | IPI [Diprotin A (IPI)] | 0.0121 | – | – | – | – | – | –
6 | GPL [GPL peptide] | 1.85 | 1.37 | 4.82 | – | – | 4.82 | ~243
7 | IY [IY peptide] | – | 3.6 | 12.3 | – | – | 12.3 | –

Next, values leading:

Row | (IC50) in mmol/l, inhibition of DPP-IV (DPP-IV from pig kidney) [mmol/L] | Inhibitory activity on α-glucosidase (IC50) in mg/ml [1] [mg/mL] | Inhibitory activity on α-glucosidase (IC50) in mmol/l [1] [mmol/L] | IC50 (inhibition of the activity of α-glucosidase in vitro) [2] [µM] | IC50 ratio against acarbose [2] [fold] | Inhibitory activity on α-glucosidase (IC50) [3] [mM] | IC50 ratio against the AP and VAP peptides [2] [fold] | Binder
8 | 4.82 | 0.0057 | 0.02 | 20 | ~595 | 0.02 | – | VAP [VAP peptide]
9 | 1.06 | 1.42 | 1.76 | – | – | – | – | SAPLRVY [SAPLRVY (SEQ ID NO: 3)]
10 | 1.18 | 2.03 | 2.68 | – | – | – | – | VAPFPEV [VAPFPEV (SEQ ID NO: 4)]
11 | – | 0.756 | 2.7 | – | – | 2.7 | ~135 | VY [VY peptide]
12 | 2.27 | 1.39 | 4.05 | – | – | – | – | VAPG [VAPG (SEQ ID NO: 6)]
13 | 10.7 | 2.29 | 4.59 | – | – | – | – | VGVAPG [VGVAPG (SEQ ID NO: 7)]
14 | – | 2.53 | 7.11 | – | – | 7.11 | ~355 | LKP [LKP peptide]
